We go through four sequences from the supplement of paper PMC5998384.

Series [1] relates to HeLa Kyoto. In words: solubility in G1/S (NP-40 vs SDS abundance) (log2 ratio); higher = more soluble. To be noted: cell cycle stage: G1/S.
Series [2] relates to HeLa Kyoto. In words: thermal stability score vs G1/S (z-score of summed log2 fold changes over temperatures); higher = more thermally stable than in G1/S.
Series [3] deals with HeLa Kyoto. Nature of the series: solubility change mitosis vs G1/S (difference of NP-40 vs SDS log2 ratios) (log2 ratio difference); higher = more soluble in mitosis.
Series [4] deals with HeLa Kyoto. In words: melting temperature (median over replicates), in situ; higher = more thermally stable.
Where [5] appears, read: cell cycle stage: early G1 (4.5 h after nocodazole release).
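For melting temperature (median over replicates), in situ in this document: HeLa Kyoto cells synchronized by double thymidine or nocodazole block, proteins quantified by TMT10plex mass spectrometry, three independent biological replicates.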
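For solubility change mitosis vs G1/S (difference of NP-40 vs SDS log2 ratios) in this document: synchronized HeLa Kyoto cells (double thymidine block for G1/S, nocodazole release for mitosis), protein amounts in NP-40 versus SDS lysates quantified by mass spectrometry, three biological replicates.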
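For solubility in G1/S (NP-40 vs SDS abundance) in this document: HeLa Kyoto cells arrested at G1/S by double thymidine block, proteins quantified by TMT10plex mass spectrometry in mild NP-40 versus SDS extracts, three biological replicates.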
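For thermal stability score vs G1/S (z-score of summed log2 fold changes over temperatures) in this document: synchronized HeLa Kyoto cells, proteins quantified by TMT10plex mass spectrometry, three biological replicates, mitosis taken 0.5 h after nocodazole release, G1/S directly after double thymidine block.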

Regarding “MATKCGNCGPGYSTPLEAMKGPREEIVYLPCIYRNTGTEAPDYLATVDVDPKSPQYCQVIHRLPMPNLKDELHHSGWNTCSSCFGDSTKSRTKLVLPSLISSRIYVVDVGSEPRAPKLHKVIEPKDIHAKCELAFLHTSHCLASGEVMISSLGDVKGNGKGGFVLLDGETFEVKGTWERPGGAAPLGYDFWYQPRHNVMISTEWAAPNVLRDGFNPADVEAGLYGSHLYVWDWQRHEIVQTLSLKDGLIPLEIRFLHNPDAAQGFVGCALSSTIQRFYKNEGGTWSVEKVIQVPPKKVKGWLLPEMPGLITDILLSLDDRFLYFSNWLHGDLRQYDISDPQRPRLTGQLFLGGSIVKGGPVQVLEDEELKSQPEPLVVKGKRVAGGPQMIQLSLDGKRLYITTSLYSAWDKQFYPDLIREGSVMLQVDVDTVKGGLKLNPNFLVDFGKEPLGPALAHELRYPGGDCSSDIWI [SELENBP1]”, in series [1], the “solubility in G1/S (log2)” value is 0.265. Further, the thermal stability score in series [2] (setting [5]) was -0.479; in series [2] (cell cycle stage: mitosis) it was -0.737. Moreover, in series [3], the “solubility change mitosis (log2)” value is -0.131. Further, the melting temperature in series [4] (cell cycle stage: G1/S) was 59.7 °C; in series [4] (cell cycle stage: mitosis), 60.9 °C.
“MAARVLIIGSGGREHTLAWKLAQSHHVKQVLVAPGNAGTACSEKISNTAISISDHTALAQFCKEKKIEFVVVGPEAPLAAGIVGNLRSAGVQCFGPTAEAAQLESSKRFAKEFMDRHGIPTAQWKAFTKPEEACSFILSADFPALVVKASGLAAGKGVIVAKSKEEACKAVQEIMQEKAFGAAGETIVIEELLDGEEVSCLCFTDGKTVAPMPPAQDHKRLLEGDGGPNTGGMGAYCPAPQVSNDLLLKIKDTVLQRTVDGMQQEGTPYTGILYAGIMLTKNGPKVLEFNCRFGDPECQVILPLLKSDLYEVIQSTLDGLLCTSLPVWLENHTALTVVMASKGYPGDYTKGVEITGFPEAQALGLEVFHAGTALKNGKVVTHGGRVLAVTAIRENLISALEEAKKGLAAIKFEGAIYRKDVGFRAIAFLQQPRSLTYKESGVDIAAGNMLVKKIQPLAKATSRSGCKVDLGGFAGLFDLKAAGFKDPLLASGTDGVGTKLKIAQLCNKHDTIGQDLVAMCVNDILAQGAEPLFFLDYFSCGKLDLSVTEAVVAGIAKACGKAGCALLGGETAEMPDMYPPGEYDLAGFAVGAMERDQKLPHLERITEGDVVVGIASSGLHSNGFSLVRKIVAKSSLQYSSPAPDGCGDQTLGDLLLTPTRIYSHSLLPVLRSGHVKAFAHITGGGLLENIPRVLPEKLGVDLDAQTWRIPRVFSWLQQEGHLSEEEMARTFNCGVGAVLVVSKEQTEQILRDIQQHKEEAWVIGSVVARAEGSPRVKVKNLIESMQINGSVLKNGSLTNHFSFEKKKARVAVLISGTGSNLQALIDSTREPNSSAQIDIVISNKAAVAGLDKAERAGIPTRVINHKLYKNRVEFDSAIDLVLEEFSIDIVCLAGFMRILSGPFVQKWNGKMLNIHPSLLPSFKGSNAHEQALETGVTVTGCTVHFVAEDVDAGQIILQEAVPVKRGDTVATLSERVKLAEHKIFPAALQLVASGTVQLGENGKICWVKEE [GART]”: the “solubility in G1/S (log2)” value in series [1] amounted to 0.201. The thermal stability score in series [2] (setting [5]) was determined as 0.0198; in series [2] (cell cycle stage: mitosis), 0.936. Also, in series [3], the “solubility change mitosis (log2)” value is -0.137. The melting temperature came out at 50.8 °C in series [4] (cell cycle stage: G1/S) and 51 °C in series [4] (cell cycle stage: mitosis).
“MSSSPLSKKRRVSGPDPKPGSNCSPAQSVLSEVPSVPTNGMAKNGSEADIDEGLYSRQLYVLGHEAMKRLQTSSVLVSGLRGLGVEIAKNIILGGVKAVTLHDQGTAQWADLSSQFYLREEDIGKNRAEVSQPRLAELNSYVPVTAYTGPLVEDFLSGFQVVVLTNTPLEDQLRVGEFCHNRGIKLVVADTRGLFGQLFCDFGEEMILTDSNGEQPLSAMVSMVTKDNPGVVTCLDEARHGFESGDFVSFSEVQGMVELNGNQPMEIKVLGPYTFSICDTSNFSDYIRGGIVSQVKVPKKISFKSLVASLAEPDFVVTDFAKFSRPAQLHIGFQALHQFCAQHGRPPRPRNEEDAAELVALAQAVNARALPAVQQNNLDEDLIRKLAYVAAGDLAPINAFIGGLAAQEVMKACSGKFMPIMQWLYFDALECLPEDKEVLTEDKCLQRQNRYDGQVAVFGSDLQEKLGKQKYFLVGAGAIGCELLKNFAMIGLGCGEGGEIIVTDMDTIEKSNLNRQFLFRPWDVTKLKSDTAAAAVRQMNPHIRVTSHQNRVGPDTERIYDDDFFQNLDGVANALDNVDARMYMDRRCVYYRKPLLESGTLGTKGNVQVVIPFLTESYSSSQDPPEKSIPICTLKNFPNAIEHTLQWARDEFEGLFKQPAENVNQYLTDPKFVERTLRLAGTQPLEVLEAVQRSLVLQRPQTWADCVTWACHHWHTQYSNNIRQLLHNFPPDQLTSSGAPFWSGPKRCPHPLTFDVNNPLHLDYVMAAANLFAQTYGLTGSQDRAAVATFLQSVQVPEFTPKSGVKIHVSDQELQSANASVDDSRLEELKATLPSPDKLPGFKMYPIDFEKDDDSNFHMDFIVAASNLRAENYDIPSADRHKSKLIAGKIIPAIATTTAAVVGLVCLELYKVVQGHRQLDSYKNGFLNLALPFFGFSEPLAAPRHQYYNQEWTLWDRFEVQGLQPNGEEMTLKQFLDYFKTEHKLEITMLSQGVSMLYSFFMPAAKLKERLDQPMTEIVSRVSKRKLGRHVRALVLELCCNDESGEDVEVPYVRYTIR [UBA1]”: the “solubility in G1/S (log2)” value in series [1] was 0.11. Besides, the thermal stability score is 2.94 in series [2] (setting [5]) and 5.38 in series [2] (cell cycle stage: mitosis). The “solubility change mitosis (log2)” value in series [3] is -0.171. Also, the melting temperature in series [4] (cell cycle stage: G1/S) is 49.5 °C; in series [4] (cell cycle stage: mitosis), 50 °C.
In the case of “MPLHQLGDKPLTFPSPNSAMENGLDHTPPSRRASPGTPLSPGSLRSAAHSPLDTSKQPLCQLWAEKHGARGTHEVRYVSAGQSVACGWWAFAPPCLQVLNTPKGILFFLCAAAFLQGMTVNGFINTVITSLERRYDLHSYQSGLIASSYDIAACLCLTFVSYFGGSGHKPRWLGWGVLLMGTGSLVFALPHFTAGRYEVELDAGVRTCPANPGAVCADSTSGLSRYQLVFMLGQFLHGVGATPLYTLGVTYLDENVKSSCSPVYIAIFYTAAILGPAAGYLIGGALLNIYTEMGRRTELTTESPLWVGAWWVGFLGSGAAAFFTAVPILGYPRQLPGSQRYAVMRAAEMHQLKDSSRGEASNPDFGKTIRDLPLSIWLLLKNPTFILLCLAGATEATLITGMSTFSPKFLESQFSLSASEAATLFGYLVVPAGGGGTFLGGFFVNKLRLRGSAVIKFCLFCTVVSLLGILVFSLHCPSVPMAGVTASYGGSLLPEGHLNLTAPCNAACSCQPEHYSPVCGSDGLMYFSLCHAGCPAATETNVDGQKVYRDCSCIPQNLSSGFGHATAGKCTSTCQRKPLLLVFIFVVIFFTFLSSIPALTATLRCVRDPQRSFALGIQWIVVRILGGIPGPIAFGWVIDKACLLWQDQCGQQGSCLVYQNSAMSRYILIMGLLYKVLGVLFFAIACFLYKPLSESSDGLETCLPSQSSAPDSATDSQLQSSV [SLCO4A1]”, the “solubility in G1/S (log2)” value in series [1] came out at 0.576. In addition, the thermal stability score in series [2] (setting [5]) was -0.978; in series [2] (cell cycle stage: mitosis) it was -0.221. Also, in series [3], the “solubility change mitosis (log2)” value is -0.143. Also, the melting temperature was found to be 55.2 °C in series [4] (cell cycle stage: G1/S) and 56.9 °C in series [4] (cell cycle stage: mitosis).
